Experimental data published in patent US11547721B2, “Magnetic nanoparticles for use in the treatment of tumors” (CONSIGLIO NAZIONALE DELLE RICERCHE, priority 2018, dated 2023).

B1: NCs-PEG-Pt-scFv (conjugate)
scFv: NVQLVESGGGLVQPGRSLRLSCTTSGFTFGDYAMIWARQAPGKGLEWVSSISSSSSYIYYADSVKGRFTISRDNAKNSLYLQMNSLRAEDTAVYYCARERYDFWSGMDVWGKGTTVTVSSGGGGSGGGGSGGSAQSALTQPASVSGSPGQSITISCTGTSSDVGSYNLVSWYQQHPGKAPKLMIYEGSKRPSGVSNRFSGSKSGNAASLTISGLQAEDEADYYCQSYDSSLSVVFGGGTKLTVLGAAAHHHHHHGAAEQ
B2: NCs_scFv (conjugate)
scFv: B1 scFv

Assays:
IGROV-1 cells [1] = test: Hyperthermia combined with release of chemotherapeutic agent, viability with Presto blue; format: cell-based; settings: for cell viability at 24 hours / cell viability at 48 hours / cell viability at 120 hours: with hyperthermia (2 x 30 min, 42° C., 27 kA m^−1, 182 kHz), 5.5 g Fe/L
Protocol: Hyperthermia experiments were conducted on cells treated with the invention's nanocubes to monitor the efficiency of nanoparticles in killing tumor cells with heat and improving the toxicity mediated by oxaliplatin. In practice, 3×10^6 IGROV-1 cells were incubated with 5.5 g of Fe/L of invention nanocubes functionalized with oxaliplatin and NCs-PEG-Pt-C4 antibody fragment, and exposed to a magnetic field of 27 kA m^−1 at frequency of 182 kHz, so as not to exceed the biological limit (Hf=5×10^9 A m^−1 s^−1). Two consecutive 30-minutes hyperthermia treatments were then performed, each with a maximum temperature reached in these conditions of 42° C. Also included in this study were: untreated cells, cells incubated with nanocubes functionalized only with antibody without oxaliplatin (exposed and not exposed to hyperthermia), and cells incubated with nanocubes functionalized with antibody and oxaliplatin not exposed to hyperthermia. A control experiment was also performed by incubating the cells with free oxaliplatin at the same amount of platinum loaded on the nanocubes (28 μg of platinum, corresponding to 140 μM of oxaliplatin).
After the hyperthermal treatment, the cells were washed to remove excess nanocubes present and re-seeded in a fresh culture medium (5×10^4 cells per well for each cell sample), so as to monitor their vitality at 24, 48 and 120 hours after treatment, with an assay with blue Presto. […] After 120 hours, the combined and concomitant action of hyperthermia and release of the chemotherapeutic agent made the cells unable to recover their growth (vitality of about 40% at 120 hours).

IGROV-1 cells [2] = test: Cytotoxicity, cell viability assay with Presto blue; format: cell-based
Protocol: Cytotoxicity studies have been conducted to confirm the activity of the platinum-based chemotherapeutic agent attached to the nanocubes. IGROV-1 cells were incubated with nanocubes functionalized with oxaliplatin and antibody (in FIG. 3a indicated as NCs_OHP_C4) for 24, 48 and 72 hours at Fe concentration equal to 0.05 g/L, 0.1 g/L and 0.15 g/L, corresponding to 1.3, 2.6 and 3.9 μM of oxaliplatin chemotherapeutic agent. Cell viability has been verified in an assay with Presto blue. […] The toxicity of the chemotherapeutic agent alone was administered, administered to the cells for 24 hours, 48 hours and 72 hours at the concentration of oxaliplatin corresponding to the same quantity loaded on the nanocubes. […] It is also important to note that in these experiments the control consisted of nanocubes with polymeric coating, functionalised with PEG-NTA-C4, but lacking oxaliplatin, prepared as described above.
Cytotoxicity data were also collected for longer-time treatments, to verify the toxicity of oxaliplatin loaded on the nanocubes according to the invention over extended periods of time. In fact, since the action of platinum-based chemotherapy drugs involves their interleaving within the cell's DNA, the adverse effects of treatment with these drugs should be more evident at longer times after exposure to the drug. Then, after exposure of the IGROV-1 cells to the nanocubes functionalized with antibody and drug for 24, 48 and 72 hours of treatment respectively, the supernatant was removed and the cells were kept in a fresh culture medium for a further 24, 48 or 72 hours. The viability of these cells was verified by analysis with blue Presto immediately after direct exposure to the nanocubes and at 24, 48 and 72 hours after incubation.

[3] = system: IGROV-1 cells (high natural expression of folate receptors); test: Flow cytometry (FACS) binding of nanocubes to cells; format: cell-based; settings: 0.025 mg/mL antibody fragment, PBS, 4° C., 1 hour
Protocol: (§1) The A431-tFR and A431-MOCK cells provided by the IRCSS Foundation, National Cancer Institute, Milan, Italy, were grown in the modified Dulbecco culture medium (DMEM, Merck, Kenilworth, USA). IGROV-1 cells (ATCC, UK) were cultured in RPMI-1640 (RPMI-1640, Merck, Kenilworth, USA). The KB cells (ATCC, UK) were cultured in RPMI-1640 without folic acid (RPMI-1640 without folic acid, Merck, Kenilworth, USA). All culture media were added with 10% inactivated fetal bovine serum (FBS), 1% penicillin-streptomycin and 1% glutamine at 37° C., 95% humidity with 5% CO2. The cells were divided every 3-4 days before reaching confluence. In these experiments, the functionalized nanocubes of the invention comprising the antibody fragment in a quantity of 0.025 mg/mL were incubated in PBS at 4° C. for 1 hour with 5×10^5 cells of the cell lines indicated above. As a negative control, the non-functionalised nanocubes with polymer coating were used. Then, after three washes, the cells were incubated for 1 hour at 4° C. with the primary antibody that binds to the myc sequence of the C4 antibody fragment. Following a wash in PBS a secondary antibody conjugated to the fluorescent probe Alexa-488 was added to the cells, capable of binding the Fc portion of the primary antibody.

[4] = system: KB cells (high natural expression of folate receptors); test: as above; format: cell-based; settings: 0.025 mg/mL antibody fragment, PBS, 4° C., 1 hour
Protocol: as §1

[5] = system: A431-MOCK cells (do not express the folate receptor); test: as above; format: cell-based; settings: 0.025 mg/mL antibody fragment, PBS, 4° C., 1 hour
Protocol: as §1

[6] = system: A431-tFR cells (A431 transfected with folate receptor gene α-FR); test: as above; format: cell-based; settings: 0.025 mg/mL antibody fragment, PBS, 4° C., 1 hour
Protocol: as §1

IGROV-1 cells [7] = test: Confocal laser scanning microscopy (CLSM) of nanocube internalization; format: cell-based
[8] = Release of platinum from nanocubes in citrate buffer at different pH; format: physicochemical; settings: pH 5.5, 5 and 4.5
Text: Firstly, in a test tube, the release of platinum from the citrated buffer nanocubes at different pH was verified, according to the expected acidity values for endosomes, late endosomes and lysosomes (pH=5.5, 5 and 4.5 respectively). It has thus been verified that the release of platinum is pH dependent and that the maximum amount of platinum released is obtained at the lowest pH, i.e. at pH 4.5, which corresponds to the pH of the lysosomal environment.

IGROV-1 cells [9] = test: Comet assay for DNA cross-linking; format: cell-based; settings: 24, 48, 72 hours incubation, then H2O2
Protocol: Furthermore, once released from the nanocubes, platinum must be incorporated into the cell nuclei and must form crosslinks with the DNA. In fact, its toxicity depends on the impossibility for cells to replicate and transcribe their genetic makeup due to the presence of platinum-DNA complexes. Thus, to evaluate the presence of cross-linking in the DNA of cells treated with nanocubes, a Comet assay was performed, whose results are illustrated in the images in FIG. 7, acquired with a confocal microscope. In this experiment, the cell samples examined of IGROV-1 cells were incubated with the nanocubes with antibody but without platinum (in FIG. 7 indicated as NCs_C4) and with the nanocubes of the invention with antibody and oxaliplatin (indicated in the figure as NCs_OHP_C4) for 24, 48 and 72 hours, so they were treated with H2O2 hydrogen peroxide. As a control, IGROV-1 cells were used, treated with the same nanocubes, with and without platinum, but without treatment with hydrogen peroxide.
The toxicity observed in the cells following treatment with functionalized nanocubes of the invention, we can conclude that it results from the combined effects of hyperthermia and toxicity induced by the platinum-based drug.

[10] = 24, 48 and 72 hours, oxaliplatin amount or nanocube concentration as for loaded nanocubes

Row | Molecule | cell viability after treatment (IGROV-1 cells [1]; free drug, 140 μM oxaliplatin (28 μg platinum), 24, 48, 120 hours) | toxicity (cell viability, Presto blue) (IGROV-1 cells [2]; [10]) | nanocube binding to cells (fluorescence intensity vs. cell count) [3] | nanocube binding to cells (fluorescence intensity vs. cell count) [4] | nanocube binding to cells (fluorescence intensity vs. cell count) [5] | nanocube binding to cells (fluorescence intensity vs. cell count) [6] | localization of nanocubes in cells (IGROV-1 cells [7]; 2 hours incubation at 37° C.) | localization of nanocubes in cells (IGROV-1 cells [7]; 4 hours incubation at 37° C.) | localization of nanocubes in cells (IGROV-1 cells [7]; 12 hours incubation at 37° C.) | cell viability at 24 hours (IGROV-1 cells [1]) | cell viability at 48 hours (IGROV-1 cells [1]) | cell viability at 120 hours (IGROV-1 cells [1]) | pH of maximum amount of platinum released [8] | release of platinum [8] | DNA trace in Comet assay (IGROV-1 cells [9]) | cell viability post-incubation (p.i.) (IGROV-1 cells [2]; 24 hours of treatment, then fresh medium 24, 48, 72 hours) | toxicity (cell viability, Presto blue) (IGROV-1 cells [2]; 48 hours incubation, Fe 0.05, 0.1, 0.15 g/L = 1.3, 2.6, 3.9 μM oxaliplatin) | cell viability post-incubation (p.i.) (IGROV-1 cells [2]; 48 hours of treatment, then fresh medium up to 72 hours) | toxicity (cell viability, Presto blue) (IGROV-1 cells [2]; 72 hours incubation vs 48 hours, Fe 0.05, 0.1, 0.15 g/L = 1.3, 2.6, 3.9 μM oxaliplatin)
1 | O=C1[O][Pt]2([NH][C@@H]3CCCC[C@H]3[NH]2)[O]C1=O [oxaliplatin, reference compound] | slightly affected | moderate toxicity | – | – | – | – | – | – | – | – | – | – | – | – | – | – | – | – | –
2 | B1 | – | – | nanocube binding was demonstrated | nanocube binding was demonstrated | no binding was found | nanocube binding was demonstrated | most of the nanocubes were located at the cell membrane | progressive internalization | complete internalization | significantly modified cell viability | further compromised | about 40% | 4.5 | pH dependent | progressive delay in migration reaching a maximum after 72 hours | decreases after 24 hours of treatment (post-incubation, p.i.) for the next 24 hours and then goes up again after 48 and 72 hours post-incubation | Serious toxicity | decreases again for the next 72 hours | increased
3 | B2 | – | no toxicity | – | – | – | – | – | – | – | significantly modified cell viability | began to show a recovery | 95% | – | – | traces of extensive damage | – | – | – | –
